Laboratory results from patent US20220088117.

Test system: T1, Serp-1 (myxomavirus-derived serine protease inhibitor)
T1 sequence: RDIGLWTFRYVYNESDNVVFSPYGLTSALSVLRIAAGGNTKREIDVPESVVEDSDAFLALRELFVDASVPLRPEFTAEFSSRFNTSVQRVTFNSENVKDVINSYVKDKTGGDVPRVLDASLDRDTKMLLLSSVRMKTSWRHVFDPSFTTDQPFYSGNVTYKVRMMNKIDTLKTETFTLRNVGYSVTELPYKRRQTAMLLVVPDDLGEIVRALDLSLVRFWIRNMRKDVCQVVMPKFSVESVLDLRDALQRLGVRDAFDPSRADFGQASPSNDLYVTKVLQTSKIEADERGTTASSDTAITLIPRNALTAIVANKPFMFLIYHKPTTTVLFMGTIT

urokinase-type plasminogen activator (uPA)
uPA activity in an in vitro substrate conversion assay: Serp-1 inhibition of uPA activity in an in vitro substrate conversion assay is not affected by the presence of a broad-spectrum antibiotic cocktail
